Results published in the supplement of paper PMC9112550, “Optimization of the antimicrobial peptide Bac7 by deep mutational scanning” (BMC Biology, 2022).

Tested on: Escherichia coli TOP10
Experiment: shrunken log2 fold change of peptide-encoding DNA abundance (4.5 h post-induction vs induction); higher = less antimicrobial activity (less host growth inhibition)
Settings: time post-induction: 4.5 h; library: site-saturation at positions 5, 18, 19, 20
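Note: peptides expressed intracellularly from a pBAD plasmid library in pooled LB shake-flask culture, induced with 0.3% L-arabinose, DNA abundance read by NGS, three biological replicates, DESeq2 with apeglm shrinkage.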

| Sequence | shrunken log2 fold change |
| --- | --- |
| RRIRVRPPRLPRPRPRPDPRPRP | 0.395 |
| RRIRFRPPRLPRPRPRPVFWPRP | 0.423 |
| RRIRFRPPRLPRPRPRPPRNPRP | 0.263 |
| RRIRHRPPRLPRPRPRPVPGPRP | -0.163 |
| RRIRNRPPRLPRPRPRPPTAPRP | 0.295 |
| RRIRFRPPRLPRPRPRPCQVPRP | 0.084 |
| RRIRHRPPRLPRPRPRPNPGPRP | 0.111 |
| RRIRSRPPRLPRPRPRPHTGPRP | -0.703 |
| RRIRFRPPRLPRPRPRPKRMPRP | 0.133 |
| RRIRERPPRLPRPRPRPGNQPRP | -0.00399 |
| RRIRRRPPRLPRPRPRPNQSPRP | -0.13 |
| RRIRIRPPRLPRPRPRPDYGPRP | -0.117 |
| RRIRPRPPRLPRPRPRPECSPRP | -0.0845 |
| RRIRPRPPRLPRPRPRPRFVPRP | 0.109 |
| RRIRYRPPRLPRPRPRPESCPRP | 0.0195 |
| RRIRWRPPRLPRPRPRPIVVPRP | -0.0496 |
| RRIRPRPPRLPRPRPRPWQIPRP | 0.452 |
| RRIRKRPPRLPRPRPRPRWMPRP | 0.273 |
| RRIRSRPPRLPRPRPRPFDDPRP | -0.0842 |
| RRIRGRPPRLPRPRPRPWNVPRP | -0.0303 |
| RRIRKRPPRLPRPRPRPVFGPRP | 0.176 |
| RRIRDRPPRLPRPRPRPNINPRP | -0.35 |
| RRIRFRPPRLPRPRPRPPPFPRP | 0.608 |
| RRIRKRPPRLPRPRPRPVICPRP | 0.115 |
| RRIRIRPPRLPRPRPRPVQRPRP | -0.039 |

| Sequence | shrunken log2 fold change |
| --- | --- |
| RRIRTRPPRLPRPRPRPFGLPRP | 0.0236 |
| RRIRYRPPRLPRPRPRPDEWPRP | 0.0549 |
| RRIRSRPPRLPRPRPRPAIHPRP | -0.912 |
| RRIRARPPRLPRPRPRPGCIPRP | 0.315 |
| RRIRFRPPRLPRPRPRPSLWPRP | 0.29 |
| RRIRPRPPRLPRPRPRPLESPRP | -0.0234 |
| RRIRHRPPRLPRPRPRPRFPPRP | 0.0956 |
| RRIRCRPPRLPRPRPRPSRSPRP | -0.136 |
| RRIRRRPPRLPRPRPRPTWFPRP | 0.0478 |
| RRIRGRPPRLPRPRPRPVRNPRP | 0.308 |
| RRIRLRPPRLPRPRPRPKVWPRP | 0.0698 |
| RRIRNRPPRLPRPRPRPPDDPRP | 0.123 |
| RRIRFRPPRLPRPRPRPLILPRP | -0.739 |
| RRIRYRPPRLPRPRPRPPYLPRP | -0.985 |
| RRIRGRPPRLPRPRPRPRSKPRP | 0.781 |
| RRIRQRPPRLPRPRPRPMTIPRP | -0.227 |
| RRIRFRPPRLPRPRPRPYHSPRP | -0.0452 |
| RRIRYRPPRLPRPRPRPDPAPRP | -0.164 |
| RRIRGRPPRLPRPRPRPCLDPRP | -0.0991 |
| RRIRNRPPRLPRPRPRPHQYPRP | -0.458 |
| RRIRQRPPRLPRPRPRPIEKPRP | 0.0125 |
| RRIRHRPPRLPRPRPRPVWCPRP | -0.0641 |
| RRIRGRPPRLPRPRPRPKLFPRP | 0.75 |
| RRIRPRPPRLPRPRPRPFWAPRP | 0.0614 |
| RRIRHRPPRLPRPRPRPGMPPRP | 0.47 |
